Drawing on publication PMC11232922, this text covers EC50 for two substances.

The test has as its target human fibrinogen (human) (UniProt P02671). The experiment in a line: ELISA. (In general: In an ELISA, binding on a coated surface is turned into a signal by an enzyme label.)

With “recombinant gain-of-function (GOF) A1(R1450E)A2A3 mutant of VWF (domain or fragment)”, the concentration for a half-maximal effect (EC50) (in general, the concentration needed to bring the measured effect to its halfway point) came to 63 nM.
In turn, “recombinant wild-type A1A2A3 (WT) domains protein of VWF (domain or fragment)” had an EC50 of 87 nM.
